Measured values reported in US11260115B1, “Peptides and combination of peptides for use in immunotherapy against CLL and other cancers” (immatics biotechnologies GmbH, priority 2015, dated 2022).

These substances were tested against HLA-A*02:01 (Homo sapiens, UniProt P04439, D140Y/D185E/D98H/E176V/E277Q/G131W/G231S/I119V/I121R/I166T/I218V/L300P/L318F/N151K/N90K/P208A/P217A/Q86G/Q94H/R138H/R169H/T345S) (assay: MHC binding assay (UV-ligand exchange, β2m ELISA, peptide exchange yield)). Conditions: binding to HLA-A*02:01.
In short: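 Peptide-HLA-A*02:01 complexes formed by UV-mediated exchange of a photocleavable ligand; exchange yield measured by streptavidin-capture ELISA detecting β2m with HRP anti-β2m, TMB read at 450 nm. Refolded monomer standards 15-500 ng/ml; samples diluted 100-fold.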

| Substance | Peptide Exchange (MHC class I binding score, peptide exchange yield) |
| --- | --- |
| 266 (TLLDQLDTQL; listed as Homo sapiens) [compound 266] | “++” (>20% = ++) |
| 267 (TLLDWQDSL; listed as Homo sapiens) [compound 267] | “+++” (>50 = +++) |
| 268 (TLLQVFHLL; listed as Homo sapiens) [compound 268] | “+++” (>50 = +++) |
| 269 (TLTDEQFLV; listed as Homo sapiens) [compound 269] | “++” (>20% = ++) |
| 270 (TVLPVPPLSV; listed as Homo sapiens) [compound 270] | “+++” (>50 = +++) |
| 271 (VIRNIVEAA; listed as Homo sapiens) [compound 271] | “++” (>20% = ++) |
| 272 (VLDELPPLI; listed as Homo sapiens) [compound 272] | “+++” (>50 = +++) |
| 273 (VLGEYSYLL; listed as Homo sapiens) [compound 273] | “+++” (>50 = +++) |
| 274 (VLLEYHIAYL; listed as Homo sapiens) [compound 274] | “+++” (>50 = +++) |
| 275 (VLLFIEHSV; listed as Homo sapiens) [compound 275] | “+++” (>50 = +++) |
| 276 (VLNDGAPNV; listed as Homo sapiens) [compound 276] | “+++” (>50 = +++) |
| 277 (VMILKLPFL; listed as Homo sapiens) [compound 277] | “++” (>20% = ++) |
| 278 (YLDDLLPKL; listed as Homo sapiens) [compound 278] | “+++” (>50 = +++) |
| 279 (YMAPEVVEA; listed as Homo sapiens) [compound 279] | “+++” (>50 = +++) |
| 280 (YTLDSLYWSV; listed as Homo sapiens) [compound 280] | “+++” (>50 = +++) |
| 282 (LLRDGIELV; listed as Homo sapiens) [compound 282] | “+++” (>50 = +++) |
| 283 (ILQPMDIHV; listed as Homo sapiens) [compound 283] | “+++” (>50 = +++) |
| 284 (LLSAAEPVPA; listed as Homo sapiens) [compound 284] | “++” (>20% = ++) |
| 285 (GVATAGCVNEV; listed as Homo sapiens) [compound 285] | “++++” (>75% = ++++) |
| 286 (FLLEDLSQKL; listed as Homo sapiens) [compound 286] | “+++” (>50 = +++) |
| 287 (FLWEEKFNSL; listed as Homo sapiens) [compound 287] | “++++” (>75% = ++++) |

| Substance | Peptide Exchange (MHC class I binding score, peptide exchange yield) |
| --- | --- |
| 288 (GLAESTGLLAV; listed as Homo sapiens) [compound 288] | “+++” (>50 = +++) |
| 289 (ILEEQPMDMLL; listed as Homo sapiens) [compound 289] | “+++” (>50 = +++) |
| 291 (ILLNEDDLVTI; listed as Homo sapiens) [compound 291] | “+++” (>50 = +++) |
| 292 (AAALIIHHV; listed as Homo sapiens) [compound 292] | “+++” (>50 = +++) |
| 293 (ALDIMIPMV; listed as Homo sapiens) [compound 293] | “+++” (>50 = +++) |
| 294 (ALLDQLHTLL; listed as Homo sapiens) [compound 294] | “++++” (>75% = ++++) |
| 295 (ALLQKLQQL; listed as Homo sapiens) [compound 295] | “+++” (>50 = +++) |
| 296 (FIAPTGHSL; listed as Homo sapiens) [compound 296] | “++” (>20% = ++) |
| 297 (FLVEPQEDTRL; listed as Homo sapiens) [compound 297] | “+++” (>50 = +++) |
| 298 (IILPVEVEV; listed as Homo sapiens) [compound 298] | “+++” (>50 = +++) |
| 299 (ILEENIPVL; listed as Homo sapiens) [compound 299] | “+++” (>50 = +++) |
| 300 (ILLNPAYDVYL; listed as Homo sapiens) [compound 300] | “+++” (>50 = +++) |
| 301 (AASPIITLV; listed as Homo sapiens) [compound 301] | “+++” (>50 = +++) |
| 302 (ILQDLTFVHL; listed as Homo sapiens) [compound 302] | “+++” (>50 = +++) |
| 303 (ILSQPTPSL; listed as Homo sapiens) [compound 303] | “+++” (>50 = +++) |
| 304 (LAIVPVNTL; listed as Homo sapiens) [compound 304] | “+” (>10% = +) |
| 305 (LLFPQIEGIKI; listed as Homo sapiens) [compound 305] | “+++” (>50 = +++) |
| 306 (VVAEELENV; listed as Homo sapiens) [compound 306] | “++” (>20% = ++) |
| 308 (SLYDVSRMYV; listed as Homo sapiens) [compound 308] | “++++” (>75% = ++++) |
| 309 (ILYGTQFVL; listed as Homo sapiens) [compound 309] | “+++” (>50 = +++) |
| 310 (LLSTLHLLV; listed as Homo sapiens) [compound 310] | “+++” (>50 = +++) |

| Substance | Peptide Exchange (MHC class I binding score, peptide exchange yield) |
| --- | --- |
| 311 (LLVDVEPKV; listed as Homo sapiens) [compound 311] | “+++” (>50 = +++) |
| 312 (LLYNSTDPTL; listed as Homo sapiens) [compound 312] | “+++” (>50 = +++) |
| 313 (LMADLEGLHL; listed as Homo sapiens) [compound 313] | “+++” (>50 = +++) |
| 314 (LMKDCEAEV; listed as Homo sapiens) [compound 314] | “+++” (>50 = +++) |
| 315 (LVYEAPETV; listed as Homo sapiens) [compound 315] | “+++” (>50 = +++) |
| 316 (MLLEHGITL; listed as Homo sapiens) [compound 316] | “+++” (>50 = +++) |
| 317 (NLLAHIWAL; listed as Homo sapiens) [compound 317] | “+++” (>50 = +++) |
| 318 (NLQVTQPTV; listed as Homo sapiens) [compound 318] | “+++” (>50 = +++) |
| 319 (QVIPQLQTV; listed as Homo sapiens) [compound 319] | “+++” (>50 = +++) |
| 321 (RLLEFELAQL; listed as Homo sapiens) [compound 321] | “+++” (>50 = +++) |
| 324 (SLYSALQQA; listed as Homo sapiens) [compound 324] | “+++” (>50 = +++) |
| 325 (TLENGVPCV; listed as Homo sapiens) [compound 325] | “+++” (>50 = +++) |
| 326 (VLAFLVHEL; listed as Homo sapiens) [compound 326] | “++++” (>75% = ++++) |
| 327 (VLIKWFPEV; listed as Homo sapiens) [compound 327] | “++++” (>75% = ++++) |
| 328 (VLLPQETAEIHL; listed as Homo sapiens) [compound 328] | “++++” (>75% = ++++) |
| 329 (VLMDGSVKL; listed as Homo sapiens) [compound 329] | “++++” (>75% = ++++) |
| 330 (VLMWEIYSL; listed as Homo sapiens) [compound 330] | “+++” (>50 = +++) |
| 331 (VLWELAHLPTL; listed as Homo sapiens) [compound 331] | “+++” (>50 = +++) |
| 333 (VTLEFPQLIRV; listed as Homo sapiens) [compound 333] | “+++” (>50 = +++) |
